Laboratory results published in patent US20220251184A1 (Regeneron, published 2022).

T1: Human BMP10 (human, UniProt O95393 317-424)
T1 sequence (looked up): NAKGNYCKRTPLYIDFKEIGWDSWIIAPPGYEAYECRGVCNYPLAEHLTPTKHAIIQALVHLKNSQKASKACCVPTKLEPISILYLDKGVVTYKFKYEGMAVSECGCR

T2: Human BMP9 (human, UniProt Q9UK05 320-429)
T2 sequence (looked up): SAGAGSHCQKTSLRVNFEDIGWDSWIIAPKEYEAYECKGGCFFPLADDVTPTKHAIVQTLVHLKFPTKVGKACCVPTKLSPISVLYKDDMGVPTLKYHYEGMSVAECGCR

T3: Mouse GDF6 (mouse, UniProt P43028 335-454, limits assumed)
T3 sequence (looked up): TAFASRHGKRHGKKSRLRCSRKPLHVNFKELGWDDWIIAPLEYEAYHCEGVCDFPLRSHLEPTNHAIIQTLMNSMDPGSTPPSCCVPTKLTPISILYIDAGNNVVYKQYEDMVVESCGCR

T4: Human BMP8A (human, UniProt Q7Z5Y6 264-402, limits assumed)
T4 sequence (looked up): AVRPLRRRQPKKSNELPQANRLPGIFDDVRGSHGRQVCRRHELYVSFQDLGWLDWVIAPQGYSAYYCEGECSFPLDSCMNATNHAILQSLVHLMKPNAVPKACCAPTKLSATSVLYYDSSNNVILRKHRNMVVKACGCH

T5: Human BMP14/GDF5 (human, UniProt P43026 382-501)
T5 sequence (looked up): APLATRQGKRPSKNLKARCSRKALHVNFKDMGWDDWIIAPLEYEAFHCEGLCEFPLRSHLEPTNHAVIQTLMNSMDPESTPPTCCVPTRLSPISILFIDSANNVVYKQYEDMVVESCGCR

T6: human BMP6 (R&D Systems, Cat #507-BP) (human, UniProt P22004 375-513, limits assumed)
T6 construct: Bought protein (R&D Systems 507-BP or 507-BP/CF); also called hBMP6; hBMP-6
T6 sequence: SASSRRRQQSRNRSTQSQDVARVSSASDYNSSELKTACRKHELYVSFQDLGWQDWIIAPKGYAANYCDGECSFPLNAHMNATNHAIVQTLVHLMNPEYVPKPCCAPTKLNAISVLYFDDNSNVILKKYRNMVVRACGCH


How the values were obtained:
Human BMP10 = molecular target: T1, Human BMP10; experiment: BLI (Octet HTX), mAb captured on Protein A sensor, 100 nM ligand, 25 C
Description: (§1) Binding cross-reactivity of anti-BMP6 monoclonal antibodies to BMP6 family members, (Human: BMP6, BMP5, BMP7, BMP8A, BMP9, BMP10, BMP12, BMP14, BMP3b, Activin A, and GDF3 and mouse: BMP6 and GDF6) was determined using a real-time Bio-Layer Interferometry (BLI) biosensor using Octet HTX instrument. All binding studies were performed in 10 mM HEPES, 150 mM NaCl, 3 mM EDTA, 1 mg/mL BSA, 50 μg/mL Heparin, and 0.05% v/v Surfactant Tween-20, pH 7.4 (HBS-EBHT) buffer at 25° C. with the plate shaking at a speed of 1000 rpm. To assess binding cross-reactivity, Protein A coated Octet biosensor (Pall ForteBio Corp., #18-5010) was first dipped in wells containing […] of anti-BMP6 monoclonal antibodies for 4 minutes followed by submerging in wells containing 100 nM of different BMP6 family members for 4 minutes. The biosensors were washed in HBS-EBHT buffer in between every step of the experiment. At the end of each cycle, the Protein A biosensor was regenerated using three alternate 5 second dips in 10 mM Glycine pH 2.0 and 10 second dip HBS-EBHT buffer. The real-time binding response was monitored during the course of the experiment and the binding response at the end of every step was recorded and tabulated as shown in Tables 8A and 8B.

Human BMP9 = molecular target: T2, Human BMP9; experiment: as above
Description: as §1

Mouse GDF6 = molecular target: T3, Mouse GDF6; experiment: as above
Description: as §1

Human BMP8A = molecular target: T4, Human BMP8A; experiment: as above
Description: as §1

Human BMP14/GDF5 = molecular target: T5, Human BMP14/GDF5; experiment: as above
Description: as §1

[1] = molecular target: T6, human BMP6 (R&D Systems, Cat #507-BP); experiment: SPR (MASS-1), mAb captured on anti-human Fc, hBMP6 in solution, 25 C; 25 C
Description: Equilibrium dissociation constants (KD values) for human and mouse BMP6 binding to purified anti-BMP6 monoclonal antibodies of this invention were determined using a real-time surface plasmon resonance (SPR) biosensor instrument, MASS-1. All binding studies were performed in 10 mM HEPES, 150 mM NaCl, 3 mM EDTA, 1 μg/mL Heparin, and 0.05% v/v Surfactant Tween-20, pH 7.4 (HBS-EHT) running buffer at 25° C. and 37° C. The HCA sensor surface was first derivatized by amine coupling the monoclonal mouse anti-human Fc antibody (GE, #BR100839) and anti-BMP6 monoclonal antibodies were individually captured. Different concentrations of human BMP6 reagents (hBMP6; R&D Systems, Cat #507-BP; 60 nM-0.94 nM; 4-fold serial dilution) or mouse BMP6 (mBMP6; R&D Systems, Cat #6325-BM; 60 nM and 15 nM) prepared in HBS-EHT running buffer were injected over the captured anti-BMP6 monoclonal antibody for 4 minutes at a flow rate of 30 μL/minute, while the dissociation of BMP6 reagent bound to captured anti-BMP6 monoclonal antibody was monitored for 10 minutes in HBS-EHT running buffer. Kinetic association (kₐ) and dissociation (kd) rate constants were determined by fitting the real-time binding sensorgrams to a 1:1 binding model with mass transport limitation using Scrubber 2.0c software. […]

Binder	binding response (Human BMP10)	binding response (Human BMP9)	binding response (Mouse GDF6)	binding response (Human BMP8A)	binding response (Human BMP14/GDF5)	Kd [1]
H4H17871P (antibody, V domains shown, Fully human antibody; also called anti-BMP6 monoclonal antibody; BMP6 antibody of the invention) VH: EVQLVESGGGLVQPGGSLRLSCAASGFTFNNYAMSWVRQAPGKGLEWVSAISGSGDSTYYADSVKGRFTISRDNSKNTLYLQMNSLRAEDTAVYYCAKRSRSSPFDPWGQGTLVTVSS VL: not shown	0.01 nm	0.01 nm	-0.02 nm	0 nm	-0.01 nm	195 pM
H4H17855P (antibody, V domains shown, Fully human antibody; also called anti-BMP6 monoclonal antibody; BMP6 antibody of the invention) VH: EVQLVESGGGLVQPGGSLRLSCAASGFTFSSYAMSWVRQAPGKGLEWVSAISGSGGRTYYTDSVKGRFTMSRDNSKNTLYLQMNSLRAEDTAVYYCAKRPYNSPFDPWGQGTLVTVSS VL: EIVLTQSPGTLSLSPGEGATLSCRASQSVSSSYLAWYQQKPGQAPRLLIYGASSRATGIPDRFSGSGSGTDFTLTISRLEPEDFVVYYCQHFGGTPFTFGGGTKVEIK	-0.01 nm	0 nm	-0.02 nm	-0.02 nm	-0.02 nm	
